Source: patent US12746270 (dated 2026)

Molecular target: human megalin (human)
Experiment: SPR

human megalin (human), sequence (O00711 whole entry): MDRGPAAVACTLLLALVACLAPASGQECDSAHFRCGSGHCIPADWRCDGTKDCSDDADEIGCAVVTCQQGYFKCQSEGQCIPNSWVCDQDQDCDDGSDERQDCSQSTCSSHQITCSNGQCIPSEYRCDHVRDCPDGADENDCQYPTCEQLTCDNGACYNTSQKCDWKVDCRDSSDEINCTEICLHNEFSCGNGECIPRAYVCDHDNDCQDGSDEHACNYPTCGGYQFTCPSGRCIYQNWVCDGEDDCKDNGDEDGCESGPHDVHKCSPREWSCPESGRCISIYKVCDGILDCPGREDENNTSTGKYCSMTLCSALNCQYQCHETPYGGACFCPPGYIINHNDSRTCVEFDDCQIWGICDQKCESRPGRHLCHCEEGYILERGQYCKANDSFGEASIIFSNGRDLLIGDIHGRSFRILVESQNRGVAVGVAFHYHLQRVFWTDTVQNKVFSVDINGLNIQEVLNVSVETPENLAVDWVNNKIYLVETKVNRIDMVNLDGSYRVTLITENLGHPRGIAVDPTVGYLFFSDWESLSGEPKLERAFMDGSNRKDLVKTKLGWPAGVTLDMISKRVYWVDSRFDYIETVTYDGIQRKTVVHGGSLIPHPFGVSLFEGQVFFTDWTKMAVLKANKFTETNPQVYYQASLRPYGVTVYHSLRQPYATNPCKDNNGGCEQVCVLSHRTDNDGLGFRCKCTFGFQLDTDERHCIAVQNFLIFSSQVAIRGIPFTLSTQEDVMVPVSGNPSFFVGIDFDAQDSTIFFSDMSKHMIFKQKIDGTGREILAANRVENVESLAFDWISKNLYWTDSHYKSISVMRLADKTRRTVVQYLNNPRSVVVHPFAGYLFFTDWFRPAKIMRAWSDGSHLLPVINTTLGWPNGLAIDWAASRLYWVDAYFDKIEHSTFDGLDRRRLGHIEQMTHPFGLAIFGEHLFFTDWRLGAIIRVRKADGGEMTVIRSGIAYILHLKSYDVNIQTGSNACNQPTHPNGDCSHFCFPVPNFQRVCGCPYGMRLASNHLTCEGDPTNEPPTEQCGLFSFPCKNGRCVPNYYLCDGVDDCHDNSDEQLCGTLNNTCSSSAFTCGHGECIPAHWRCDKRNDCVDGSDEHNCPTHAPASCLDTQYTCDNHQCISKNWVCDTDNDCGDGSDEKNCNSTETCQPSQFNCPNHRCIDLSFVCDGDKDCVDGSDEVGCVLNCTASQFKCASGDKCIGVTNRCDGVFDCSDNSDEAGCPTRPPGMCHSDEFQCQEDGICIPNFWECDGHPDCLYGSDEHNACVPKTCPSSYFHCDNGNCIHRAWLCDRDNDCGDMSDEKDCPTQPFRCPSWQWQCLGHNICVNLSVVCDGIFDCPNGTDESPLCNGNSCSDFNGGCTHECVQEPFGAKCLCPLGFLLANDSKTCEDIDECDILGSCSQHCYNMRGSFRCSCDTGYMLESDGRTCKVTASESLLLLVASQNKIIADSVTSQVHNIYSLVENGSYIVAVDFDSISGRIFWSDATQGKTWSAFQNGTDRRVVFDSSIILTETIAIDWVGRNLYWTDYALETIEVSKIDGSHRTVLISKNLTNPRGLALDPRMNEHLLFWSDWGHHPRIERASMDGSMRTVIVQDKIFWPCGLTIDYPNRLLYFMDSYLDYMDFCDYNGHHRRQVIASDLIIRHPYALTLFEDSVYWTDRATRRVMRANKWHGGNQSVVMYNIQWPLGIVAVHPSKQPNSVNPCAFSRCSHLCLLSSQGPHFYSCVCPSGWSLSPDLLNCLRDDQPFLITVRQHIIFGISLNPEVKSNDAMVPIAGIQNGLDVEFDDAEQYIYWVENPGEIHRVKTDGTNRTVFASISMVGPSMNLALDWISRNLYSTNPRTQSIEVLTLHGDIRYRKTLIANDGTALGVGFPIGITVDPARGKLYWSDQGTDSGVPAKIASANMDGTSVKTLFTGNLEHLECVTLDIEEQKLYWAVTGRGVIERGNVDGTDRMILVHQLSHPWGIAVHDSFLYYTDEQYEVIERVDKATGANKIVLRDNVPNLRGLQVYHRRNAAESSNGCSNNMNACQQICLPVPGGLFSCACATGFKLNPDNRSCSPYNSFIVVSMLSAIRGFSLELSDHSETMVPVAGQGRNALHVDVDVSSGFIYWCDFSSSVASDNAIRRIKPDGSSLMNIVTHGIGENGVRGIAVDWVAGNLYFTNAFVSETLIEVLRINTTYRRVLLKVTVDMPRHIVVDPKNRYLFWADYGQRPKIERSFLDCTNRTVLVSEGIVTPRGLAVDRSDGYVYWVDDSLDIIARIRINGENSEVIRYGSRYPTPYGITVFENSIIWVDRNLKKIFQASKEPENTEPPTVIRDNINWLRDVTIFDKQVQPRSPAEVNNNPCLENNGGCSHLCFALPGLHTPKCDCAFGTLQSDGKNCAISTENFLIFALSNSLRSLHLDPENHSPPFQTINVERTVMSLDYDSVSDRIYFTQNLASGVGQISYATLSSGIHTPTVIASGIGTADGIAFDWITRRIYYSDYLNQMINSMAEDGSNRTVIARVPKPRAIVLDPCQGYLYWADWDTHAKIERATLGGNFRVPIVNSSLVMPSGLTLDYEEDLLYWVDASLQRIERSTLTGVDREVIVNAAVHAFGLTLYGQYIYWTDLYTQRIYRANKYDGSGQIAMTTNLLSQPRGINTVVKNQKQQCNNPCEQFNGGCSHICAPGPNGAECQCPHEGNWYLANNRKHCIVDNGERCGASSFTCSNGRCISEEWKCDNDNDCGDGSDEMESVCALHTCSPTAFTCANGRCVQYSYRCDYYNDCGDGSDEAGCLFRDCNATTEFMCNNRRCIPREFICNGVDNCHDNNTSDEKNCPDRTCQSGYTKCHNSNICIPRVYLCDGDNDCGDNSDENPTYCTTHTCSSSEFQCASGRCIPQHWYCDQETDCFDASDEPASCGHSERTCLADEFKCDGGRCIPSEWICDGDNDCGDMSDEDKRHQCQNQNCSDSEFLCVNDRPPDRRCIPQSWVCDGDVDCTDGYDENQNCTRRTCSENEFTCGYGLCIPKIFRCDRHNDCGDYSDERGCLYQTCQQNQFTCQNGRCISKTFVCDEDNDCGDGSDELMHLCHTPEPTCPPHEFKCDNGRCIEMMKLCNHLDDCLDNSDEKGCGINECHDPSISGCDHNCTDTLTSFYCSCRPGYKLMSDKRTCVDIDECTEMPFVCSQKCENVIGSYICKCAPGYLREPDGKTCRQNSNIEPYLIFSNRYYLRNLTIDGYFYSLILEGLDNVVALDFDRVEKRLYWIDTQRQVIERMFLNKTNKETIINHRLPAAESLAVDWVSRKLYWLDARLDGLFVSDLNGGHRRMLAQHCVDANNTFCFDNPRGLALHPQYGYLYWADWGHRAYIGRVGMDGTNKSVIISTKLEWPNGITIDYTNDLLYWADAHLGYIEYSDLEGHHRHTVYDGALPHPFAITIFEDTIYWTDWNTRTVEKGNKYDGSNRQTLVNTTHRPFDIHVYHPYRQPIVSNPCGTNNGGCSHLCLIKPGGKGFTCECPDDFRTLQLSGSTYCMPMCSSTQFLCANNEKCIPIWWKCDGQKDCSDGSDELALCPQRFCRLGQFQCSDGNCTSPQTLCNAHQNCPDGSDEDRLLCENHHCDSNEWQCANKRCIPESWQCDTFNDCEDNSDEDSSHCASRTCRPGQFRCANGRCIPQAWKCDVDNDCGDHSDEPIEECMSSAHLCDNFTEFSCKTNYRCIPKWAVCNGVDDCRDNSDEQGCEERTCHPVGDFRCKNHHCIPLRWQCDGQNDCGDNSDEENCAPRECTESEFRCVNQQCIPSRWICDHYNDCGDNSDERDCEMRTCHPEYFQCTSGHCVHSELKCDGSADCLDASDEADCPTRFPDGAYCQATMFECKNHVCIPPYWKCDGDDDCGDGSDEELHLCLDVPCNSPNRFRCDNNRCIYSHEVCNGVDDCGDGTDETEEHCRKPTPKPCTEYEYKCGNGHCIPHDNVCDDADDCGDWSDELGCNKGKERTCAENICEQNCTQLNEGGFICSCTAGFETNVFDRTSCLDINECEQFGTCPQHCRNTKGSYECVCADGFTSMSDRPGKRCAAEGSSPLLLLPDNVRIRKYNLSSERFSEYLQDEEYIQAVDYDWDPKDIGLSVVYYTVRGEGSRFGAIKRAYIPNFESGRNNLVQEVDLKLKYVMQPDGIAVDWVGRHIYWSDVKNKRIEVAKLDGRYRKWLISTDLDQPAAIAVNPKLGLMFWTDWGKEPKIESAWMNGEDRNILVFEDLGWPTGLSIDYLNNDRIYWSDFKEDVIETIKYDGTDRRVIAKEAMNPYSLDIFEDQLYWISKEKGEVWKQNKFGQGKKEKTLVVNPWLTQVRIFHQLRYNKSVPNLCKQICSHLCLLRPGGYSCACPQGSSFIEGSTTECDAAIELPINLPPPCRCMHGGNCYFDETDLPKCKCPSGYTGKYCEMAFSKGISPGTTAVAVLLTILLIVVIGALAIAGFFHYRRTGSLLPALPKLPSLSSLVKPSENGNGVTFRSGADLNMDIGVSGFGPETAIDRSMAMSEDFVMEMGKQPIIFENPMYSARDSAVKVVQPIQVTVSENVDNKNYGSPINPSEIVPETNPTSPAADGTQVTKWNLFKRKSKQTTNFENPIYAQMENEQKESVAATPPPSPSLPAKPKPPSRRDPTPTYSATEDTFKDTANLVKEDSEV

Kd: ~60 nM
B1: WT human NGAL (ligand-free) (protein)
chain: QDSTSDLIPAPPLSKVPLQQNFQDNQFQGKWYVVGLAGNAILREDKDPQKMYATIYELKEDKSYNVTSVLFRKKKCDYWIRTFVPGCQPGEFTLGNIKSYPGLTSYLVRVVSTNYNQHAMVFFKKVSQNREYFKITLYGRTKELTSELKENFIRFSKSLGLPENHIVFPVPIDQCIDG
